Data from patent US12404312B2, “Engineered VEGF variants for retinal neuroprotection, promotion of axon growth and axon regeneration” (Massachusetts Eye and Ear Infirmary, priority 2018, dated 2025).

B1: eVEGF-38: engineered covalently linked dimer of VEGF121 isoform with a 38 amino acid glycine-rich linker connected to a GPI anchor (SEQ ID NO: 1) (protein)
chain: MNFLLSWVHWSLALLLYLHHAKWSQAAPMAEGGGQNHHEVVKFMDVYQRSYCHPIETLVDIFQEYPDEIEYIFKPSCVPLMRCGGCCNDEGLECVPTEESNITMQIMRIKPHQGQHIGEMSFLQHNKCECRPKKDRARQEKCDKPRRGGSSGGSSGGSGGGTGGGSGAPMAEGGGQNHHEVVKFMDVYQRSYCHPIETLVDIFQEYPDEIEYIFKPSCVPLMRCGGCCNDEGLECVPTEESNITMQIMRIKPHQGQHIGEMSFLQHNKCECRPKKDRARQEKCDKPRRGNGNGEQKLISEEDLKLAAAGNGGNGNGNGDGNGALCNGAGFATPVTLALVPALLATFWSLL
B2: eVEGF-53: engineered covalently linked dimer of VEGF121 isoform with a 53 amino acid glycine-rich linker connected to a GPI anchor (SEQ ID NO: 2) (protein)
chain: MNFLLSWVHWSLALLLYLHHAKWSQAAPMAEGGGQNHHEVVKFMDVYQRSYCHPIETLVDIFQEYPDEIEYIFKPSCVPLMRCGGCCNDEGLECVPTEESNITMQIMRIKPHQGQHIGEMSFLQHNKCECRPKKDRARQEKCDKPRRGGSSGGSSGGSGGGTGGGSGAPMAEGGGQNHHEVVKFMDVYQRSYCHPIETLVDIFQEYPDEIEYIFKPSCVPLMRCGGCCNDEGLECVPTEESNITMQIMRIKPHQGQHIGEMSFLQHNKCECRPKKDRARQEKCDKPRRGNGNGNGNGNGNGNEQKLISEEDLKLAAAGNGNGNGNGNGNGNGDGNGGALCNGAGFATPVTLALVPALLATFWSLL
B3: VEGF189: natural VEGF189 isoform with strong heparin-binding domain, constructed with a myc-tag (SEQ ID NO: 3), tested for comparison (protein)
chain: MNFLLSWVHWSLALLLYLHHAKWSQAAPMAEGGGQNHHEVVKFMDVYQRSYCHPIETLVDIFQEYPDEIEYIFKPSCVPLMRCGGCCNDEGLECVPTEESNITMQIMRIKPHQGQHIGEMSFLQHNKCECRPKKDRARQEKKSVRGKGKGQKRKRKKSRYKSWSVPCGPCSERRKHLFVQDPQTCKCSCKNTDSRCKARQLELNERTCRCDKPRRKLGNGNGEQKLISEEDLGN
modifications: myc tag

What was measured:
primary mouse RGC [1] = assay: H2O2-induced cell death of primary mouse RGC (TUNEL staining); format: cell-based; details: P<0.05
Method: Cell death was analyzed by TUNEL staining and transgene expression by immunostaining. Percentage of viable RGC was determined by: (TUNEL-negative RGC with transgenes expression)/(total cell number by DAPI staining). […] The constructs were packaged into adeno-associated virus serotype 2 (AAV2) for efficient transduction and expression in human microvascular endothelial cells (hREC) and RGC. Transgenes expression was measured by western blot, qPCR and immunostaining. In hREC, VEGFR2, VCAM-1, E-selectin and tissue factor expression were measured by immunostaining or qPCR. VEGFR2 signaling, axon length, and synapse formation in RGC were measured by immunostaining. RGC survival was measured by TUNEL staining and intracellular [Ca2+] was measured using fura2/AM calcium imaging.

RGC = assay: Intracellular [Ca2+] in RGC by fura2/AM calcium imaging; format: cell-based, mouse; details: upon carbachol and NMDA stimulation; compared to control
Method: (§1) eVEGF-38 and eVEGF-53 localize to the cell membrane and comprise myc-tags. VEGF189 was constructed with a myc-tag. The constructs were packaged into adeno-associated virus serotype 2 (AAV2) for efficient transduction and expression in human microvascular endothelial cells (hREC) and RGC. Transgenes expression was measured by western blot, qPCR and immunostaining. In hREC, VEGFR2, VCAM-1, E-selectin and tissue factor expression were measured by immunostaining or qPCR. VEGFR2 signaling, axon length, and synapse formation in RGC were measured by immunostaining. RGC survival was measured by TUNEL staining and intracellular [Ca2+] was measured using fura2/AM calcium imaging.

primary mouse RGC [2] = assay: Survival of primary mouse RGC in culture; format: cell-based; details: control 22% survival, P<0.001
Method: FIG. 3A is a bar graph showing the results from experiments using primary mouse RGC isolated from P3 pups were transduced with different AAVs to overexpress eVEGF-38, eVEGF-53, VEGF189, or the control GFP on the day of isolation (day 0), or treated with exogenous recombinant VEGF121 protein on day 2. The number viable RGC was determined by immunostaining for beta III tubulin while total cell number per field was determined by DAPI staining on day 3 of culture.
FIG. 3B is a bar graph showing that the majority of the viable RGC were expressing the eVEGF-38, eVEGF-53, or VEGF189, whereas the GFP-expressing RGC were not protected in culture. Data=mean±SD, ***P<0.001 by unpaired t-test, n=15 different fields total (5 fields/well) from three independent wells of primary RGC.
as §1

primary RGC = assay: Synapse formation / synaptophysin expression in primary RGC; format: cell-based, mouse; details: for synaptic vesicle marker synaptophysin in axons and neurites: primary RGC overexpressing the transgene
Method: as §1

primary mouse RGC [3] = assay: Gene expression analysis of primary mouse RGC; format: cell-based; details: overexpressing primary mouse RGC; vs GFP control
Text: FIG. 9 is a series of bar graphs showing that overexpression of eVEGF-38 in primary RGC suppresses genes that are associated with cell death and suppression of axon formation, but induces genes that are associated with axon growth and neuronal function. Label: 38, eVEGF-38; Ctr, GFP control. Data=mean±SD, n=3 independent wells of primary RGC, *P<0.05, **P<0.01, ***P<0.001 by unpaired t-test.
Furthermore, eVEGF-38 and eVEGF-53 chimeric polypeptides and VEGF189 expression enhanced axons and neurites formation of primary mouse RGCs (FIGS. 5A-C, FIG. 6, and FIGS. 7A-B), supported synaptogenesis and likely neuronal function (FIG. 8), which are consistent with the role of VEGF in promoting neurogenesis and neuronal function in vitro and in vivo. […] Together, the data support overexpression of eVEGF-38, eVEGF-53 and the natural VEGF189 isoform in RGC promotes cell-autonomous RGC survival, axon growth and regeneration, and neuronal function, and is useful and a therapeutic agent for treatment of glaucoma. The chimeric polypeptides can be used therapeutically via a gene therapy approach (AAV) for eVEGF-38, eVEGF-53 and VEGF189. Activity is tested in animal models of glaucoma and optic nerve injury/regeneration.

primary mouse RGC [4] = assay: Axon and neurite formation in primary mouse RGC; format: cell-based; details: for average number of branch points of neurite per RGC / average axon length per RGC / average number of neurites per RGC / percentage of RGC with axons longer than 3× cell body length: primary RGC; for average number of branch points of neurite per RGC: compared to control; for average axon length per RGC / average number of neurites per RGC / percentage of RGC with axons longer than 3× cell body length: compared to the GFP control
Text: FIG. 6 is a series of photomicrographs showing correlative fluorescence and electron microscopy showing extra long axons (>1400 μm) from some of the eVEGF-38 overexpressing primary RGC. Green arrows, eVEGF-38 overexpressing cells; blue arrows, untransduced primary mouse RGC.
FIGS. 7A and 7B are a series of bar graphs and dot plots showing that VEGFR2 signaling is required for the formation of long axons by primary RGC overexpressing eVEGF-38, eVEGF-53, and VEGF189. […] Recombinant VEGF121 protein was added to a final concentration of 2.5 nM. […] Labels: 38, eVEGF-38; 53, eVEGF-53; 189, VEGF189; UT, untreated. Data=mean±SD, n=15 fields from 3 independent wells per group, *P<0.05, **P<0.01, ***P<0.001, one-way ANOVA.
as §1

VEGFR2 = biological target: T1, VEGFR2 (Homo sapiens, UniProt P35968); assay: VEGFR2 activation (p-VEGFR2 western blot) in transfected hREC; format: cell-based; details: hREC transfected with expression construct; lysate at 24 and 48 hours post transfection; vs GFP control
T1 construct: Human retinal endothelial cells (hREC) that express VEGFR2; endogenous in cells; host or cells: human retinal endothelial cells (hREC)
Method: Human retinal endothelial cells (hREC) that express VEGFR2 were transfected with eVEGF-38 or eVEGF-53, or VEGF189, or control GFP (ctr) expression construct and total cell lysate was collected at 24 and 48 hours post transfection. Activation of VEGFR2 was determined by the levels of VEGFR2 phosphorylation (p-VEGFR2). Data=mean±SD, **P<0.01 by unpaired t-test, n=3 independent western blot assays.
as §1

[5] = test system: human microvascular endothelial cells (hREC); assay: Pro-inflammatory markers (VCAM-1, E-selectin, tissue factor) in hREC by immunostaining or qPCR; format: cell-based; details: compared with GFP/AAV2 control, p<0.05
Method: as §1

T1 sequence (P35968 20-1356): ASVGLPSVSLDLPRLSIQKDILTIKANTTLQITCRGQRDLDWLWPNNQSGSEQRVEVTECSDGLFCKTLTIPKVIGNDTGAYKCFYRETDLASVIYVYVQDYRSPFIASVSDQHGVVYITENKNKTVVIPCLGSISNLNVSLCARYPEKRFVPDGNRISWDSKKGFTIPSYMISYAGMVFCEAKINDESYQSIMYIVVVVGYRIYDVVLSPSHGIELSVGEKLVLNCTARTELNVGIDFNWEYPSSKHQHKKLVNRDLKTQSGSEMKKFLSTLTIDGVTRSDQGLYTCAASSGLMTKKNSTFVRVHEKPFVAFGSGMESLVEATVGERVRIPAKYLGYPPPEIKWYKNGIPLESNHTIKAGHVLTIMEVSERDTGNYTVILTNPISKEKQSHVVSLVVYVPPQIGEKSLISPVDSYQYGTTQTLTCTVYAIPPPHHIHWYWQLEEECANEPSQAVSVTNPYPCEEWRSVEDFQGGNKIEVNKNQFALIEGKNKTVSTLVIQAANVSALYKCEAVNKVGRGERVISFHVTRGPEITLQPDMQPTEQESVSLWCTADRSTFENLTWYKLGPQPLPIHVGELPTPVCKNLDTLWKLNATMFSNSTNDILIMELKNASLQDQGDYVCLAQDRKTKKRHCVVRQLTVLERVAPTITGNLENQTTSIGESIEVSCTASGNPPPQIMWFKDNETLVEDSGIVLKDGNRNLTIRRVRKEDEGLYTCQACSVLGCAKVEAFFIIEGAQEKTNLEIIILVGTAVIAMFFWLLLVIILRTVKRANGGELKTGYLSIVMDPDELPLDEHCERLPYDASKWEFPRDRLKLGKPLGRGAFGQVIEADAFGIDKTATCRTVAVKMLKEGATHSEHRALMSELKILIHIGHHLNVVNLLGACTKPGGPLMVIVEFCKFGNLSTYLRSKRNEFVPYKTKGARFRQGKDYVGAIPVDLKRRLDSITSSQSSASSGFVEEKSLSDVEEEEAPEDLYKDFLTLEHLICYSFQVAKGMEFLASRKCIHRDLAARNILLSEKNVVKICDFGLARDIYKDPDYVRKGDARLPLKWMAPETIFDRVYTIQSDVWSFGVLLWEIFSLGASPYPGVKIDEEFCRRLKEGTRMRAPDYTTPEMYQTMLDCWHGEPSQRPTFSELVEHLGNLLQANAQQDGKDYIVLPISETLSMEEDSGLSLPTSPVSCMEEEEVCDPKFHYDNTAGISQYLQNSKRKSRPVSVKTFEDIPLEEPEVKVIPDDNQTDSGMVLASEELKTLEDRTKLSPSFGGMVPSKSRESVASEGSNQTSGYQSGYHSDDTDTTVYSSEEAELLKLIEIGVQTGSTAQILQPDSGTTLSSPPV

Row | Molecule | increased RGC survival upon H2O2 treatment compared to control (primary mouse RGC [1]) | intracellular [Ca2+] (RGC) | RGC survival (primary mouse RGC [2]) | synaptic vesicle marker synaptophysin in axons and neurites (primary RGC) | genes involved in apoptosis and cell death (bax/bcl2 ratio) and inhibition of axon formation (Tsc1) (primary mouse RGC [3]) | genes involved in axon growth (KLF7), neurogenesis (Microtubule-associated protein 1B) and synaptic vesicle trafficking (vesicle-associated membrane protein 3) (primary mouse RGC [3]) | average number of branch points of neurite per RGC (primary mouse RGC [4]) | average axon length per RGC (primary mouse RGC [4]) | average number of neurites per RGC (primary mouse RGC [4]) | percentage of RGC with axons longer than 3× cell body length (primary mouse RGC [4]) | length of extra long axons (primary mouse RGC [4]; some of the overexpressing primary RGC, correlative fluorescence and electron microscopy) | VEGFR2 activation by levels of VEGFR2 phosphorylation (p-VEGFR2) (VEGFR2) | pro-inflammatory markers [5] | synapse formation (primary RGC; RGC)
1 | B1 | 10% | decreased | 45% | also express synaptic vesicle marker synaptophysin | down-regulation | up-regulation | significantly increase | significantly increases | significantly increases | significantly increases | > 1400 μm | can sustain VEGFR2 activation in a cell autonomous fashion | – | –
2 | B2 | 15% | decreased | 48% | also express synaptic vesicle marker synaptophysin | – | – | significantly increase | significantly increases | significantly increases | significantly increases | – | can sustain VEGFR2 activation in a cell autonomous fashion | – | –
3 | B3 | 18% | – | 50% | also express synaptic vesicle marker synaptophysin | – | – | – | significantly increases | significantly increases | significantly increases | – | can sustain VEGFR2 activation in a cell autonomous fashion | increased | promoted synapse formation
